Results on 167 variants are retold here after the Human Domainome abundance scans (Beltran et al. 2025).

± gives the uncertainty stated by the source.

The labels stand for the following.
B1: Transcription factor SOX-4, residues 60 to 127; numbered along this chain, Q06945 (parent)
chain: KRPMNAFMVWSQIERRKIMEQSPDMHNAEISKRLGKRWKLLKDSDKIPFIREAERLRLKHMADYPDYK

This series covers variants of B1. Kind of series: abundance fitness (aPCA) (normalised: wild type 0, dead -1); higher = more abundant; growth selection in yeast, the domain comes from the species named. Particulars: Homo sapiens.
Regarding E54W, the abundance fitness is -0.643 ± 0.09.

E54R: the abundance fitness is -0.469 ± 0.051.

For D63A, the abundance fitness is -0.074 ± 0.051.

D63C: the abundance fitness was -0.397 ± 0.063. To D63G belongs -0.142 ± 0.044; to D63I, -0.181 ± 0.045; to W10P, -0.751 ± 0.13. With K32F, the abundance fitness was -0.281 ± 0.045. As to K32D, the abundance fitness is -0.012 ± 0.044.

In the case of K32Q, the abundance fitness stood at 0.066 ± 0.079. As for K32W, the abundance fitness was -0.243 ± 0.049. Turning to K32P, the abundance fitness was -0.498 ± 0.16. Turning to P65M, the abundance fitness is -0.193 ± 0.089.

With P65W, the abundance fitness was -0.466 ± 0.11.

For the variant P65A, the abundance fitness was -0.267 ± 0.083. On to E20N, for which the abundance fitness was -0.478 ± 0.2. As to E20D, the abundance fitness was -0.255 ± 0.16.

Take E20Q: the abundance fitness is -0.142 ± 0.33. The value for E20H was -0.143 ± 0.24.

Regarding N27T, the abundance fitness was -0.049 ± 0.051.

For N27D, the abundance fitness is 0.147 ± 0.045. Turning to N27H, the abundance fitness was 0.059 ± 0.049. As for N27K, the abundance fitness is -0.03 ± 0.052. For the variant A6L, the abundance fitness is -0.843 ± 0.078. A6T: the abundance fitness was -0.797 ± 0.091. For the variant A6C, the abundance fitness was -0.692 ± 0.087. To K1S belongs -0.011 ± 0.15.

With M25I, the abundance fitness stood at 0.004 ± 0.4.

In the case of M25A, the abundance fitness is -0.019 ± 0.058.

With M25W, the abundance fitness was -0.672 ± 0.12. As to M25Q, the abundance fitness is -0.595 ± 0.15.

P48C: the abundance fitness was -0.504 ± 0.084. The value for P48S was -0.453 ± 0.057. P48K: the abundance fitness is -0.482 ± 0.1.

With P48V, the abundance fitness was -0.315 ± 0.044. Consider P48H, for which the abundance fitness is -0.31 ± 0.048. For the variant P48M, the abundance fitness is -0.168 ± 0.069. Take P48G: the abundance fitness is -0.51 ± 0.042. S22K: the abundance fitness is -0.191 ± 0.049. S22F: the abundance fitness was 0.106 ± 0.05. Consider Q12T, for which the abundance fitness is -0.166 ± 0.079. Consider Q12L, for which the abundance fitness is -0.194 ± 0.055. To Q12N belongs -0.015 ± 0.099; to A53L, -0.856 ± 0.17. On to A53W, for which the abundance fitness is -1.19 ± 0.19.

Regarding A53Y, the abundance fitness is -0.347 ± 0.12. The value for A53E was -0.52 ± 0.084; that for A53V was -0.787 ± 0.12; that for M4Y was -0.236 ± 0.076. As to M4C, the abundance fitness was -0.709 ± 0.22. The value for M4G was -0.311 ± 0.063; that for M4D was -0.28 ± 0.071. Regarding M4N, the abundance fitness is -0.265 ± 0.11. Regarding M4E, the abundance fitness is -0.202 ± 0.081. Take R55F: the abundance fitness was -0.38 ± 0.059.

Turning to R55K, the abundance fitness is -0.08 ± 0.072. The value for D24N was -0.123 ± 0.063; that for D24I was -0.632 ± 0.1; that for D24P was -0.564 ± 0.11.

Take D24C: the abundance fitness is -0.335 ± 0.061.

Turning to D24T, the abundance fitness was -0.206 ± 0.068. For the variant A28C, the abundance fitness was -0.351 ± 0.15. For the variant A28S, the abundance fitness was -0.029 ± 0.052. On to A28I, for which the abundance fitness was -0.463 ± 0.29. I50F: the abundance fitness is 0.003 ± 0.12. Consider K46P, for which the abundance fitness was -0.933 ± 0.2. The value for K46N was -1.08 ± 0.11; that for L41V was -0.529 ± 0.067. L41T: the abundance fitness is -0.788 ± 0.12.

As for L41K, the abundance fitness was -0.653 ± 0.11. For L41Y, the abundance fitness was -0.807 ± 0.17. On to I30Y, for which the abundance fitness is -0.8 ± 0.11. The value for I30D was -0.871 ± 0.11; that for R16F was -0.368 ± 0.055.

For R16Q, the abundance fitness was -0.023 ± 0.067. As for R16S, the abundance fitness is -0.174 ± 0.041. For the variant R16T, the abundance fitness is -0.077 ± 0.049. The value for R16D was -0.223 ± 0.054; that for S11F was -0.217 ± 0.044. Turning to Y67G, the abundance fitness worked out at 0.119 ± 0.081. Regarding Y67F, the abundance fitness came to 0.259 ± 0.25.

As to Y67E, the abundance fitness was 0.179 ± 0.083. The value for Y67N was 0.034 ± 0.15. The value for L56I was -0.149 ± 0.093; that for L56G was -0.341 ± 0.071; that for L56E was -0.201 ± 0.1. As to L56S, the abundance fitness is -0.282 ± 0.049.

As for L56R, the abundance fitness is -0.254 ± 0.054. On to R2M, for which the abundance fitness is -0.088 ± 0.062. The value for R2S was 0.003 ± 0.093; that for R2A was -0.08 ± 0.093; that for R2W was -0.164 ± 0.095. Turning to R2P, the abundance fitness was -0.519 ± 0.16. Consider R2T, for which the abundance fitness was -0.457 ± 0.2. I47K: the abundance fitness was -0.112 ± 0.074. In the case of I47S, the abundance fitness is -0.319 ± 0.041. To I47Q belongs -0.006 ± 0.074. For I47W, the abundance fitness was -0.251 ± 0.045.

On to I47A, for which the abundance fitness worked out at 0.031 ± 0.063. Turning to I47H, the abundance fitness is -0.314 ± 0.051.

With M61G, the abundance fitness came to 0.022 ± 0.069.

In the case of M61K, the abundance fitness worked out at 0.003 ± 0.089. As to M61W, the abundance fitness is -0.224 ± 0.083. For the variant M61T, the abundance fitness was -0.025 ± 0.093. In the case of D66R, the abundance fitness was 0.015 ± 0.078. On to D66P, for which the abundance fitness was -0.067 ± 0.079.

For D66A, the abundance fitness was -0.186 ± 0.066. Regarding D66H, the abundance fitness was -0.141 ± 0.13.

D66V: the abundance fitness is -0.157 ± 0.049. The value for R33P was -0.922 ± 0.14; that for R33W was -0.089 ± 0.066; that for R33N was 0.126 ± 0.1. In the case of R33C, the abundance fitness came out at 0.083 ± 0.082. In the case of R33V, the abundance fitness stood at 0.339 ± 0.074. The value for R33T was 0.085 ± 0.097; that for D45H was -0.429 ± 0.32. The value for D45V was -0.414 ± 0.082; that for D45C was -0.758 ± 0.25. Take D45R: the abundance fitness is -0.74 ± 0.094.

In the case of K68C, the abundance fitness is -0.242 ± 0.17. Consider K68M, for which the abundance fitness is -0.23 ± 0.31.

On to K68R, for which the abundance fitness was -0.068 ± 0.079. With M8Q, the abundance fitness was determined as 0.193 ± 0.059. The value for M8F was -0.133 ± 0.041; that for H26G was -0.082 ± 0.071; that for H26A was 0.113 ± 0.07. As for H26F, the abundance fitness is -0.713 ± 0.43.

In the case of H26I, the abundance fitness is -0.088 ± 0.11. To H26L belongs -0.1 ± 0.051; to H26S, 0.291 ± 0.075; to H60G, 0.04 ± 0.05. As to H60A, the abundance fitness is -0.055 ± 0.045. Regarding P23Y, the abundance fitness is -0.862 ± 0.091. The value for P23M was -0.817 ± 0.077; that for P23I was -0.568 ± 0.074. For P23E, the abundance fitness is -0.554 ± 0.065. For P23D, the abundance fitness is -0.564 ± 0.059. For the variant P23A, the abundance fitness is -0.619 ± 0.074. To K39Y belongs -0.263 ± 0.076; to K39E, 0.057 ± 0.08.

For the variant K39A, the abundance fitness was found to be 0.093 ± 0.063. As to Y64Q, the abundance fitness is -0.112 ± 0.13. As for Y64V, the abundance fitness was determined as 0.02 ± 0.063. K59M: the abundance fitness is -0.048 ± 0.055. As to K59D, the abundance fitness was -0.13 ± 0.054. As for K59A, the abundance fitness is -0.04 ± 0.064. To K59V belongs -0.086 ± 0.038; to K59G, -0.045 ± 0.038; to I13P, -0.484 ± 0.09.

Consider I13V, for which the abundance fitness is -0.186 ± 0.049.

As for I13W, the abundance fitness is -0.531 ± 0.14.

Consider I13K, for which the abundance fitness was -0.195 ± 0.11. The value for I13G was -0.222 ± 0.053; that for I13H was 0.027 ± 0.23; that for K17S was -0.439 ± 0.075.

Turning to K17V, the abundance fitness was -0.318 ± 0.1.

On to K17E, for which the abundance fitness was -1.1 ± 0.42.

For the variant K17G, the abundance fitness was -0.783 ± 0.075. As for K17N, the abundance fitness was -0.262 ± 0.17. K17M: the abundance fitness is -0.401 ± 0.13. As for E52H, the abundance fitness was -0.726 ± 0.3. The value for E52M was -0.394 ± 0.071; that for E52C was -0.353 ± 0.11. Take Q21R: the abundance fitness is -0.267 ± 0.066.

Take Q21N: the abundance fitness is -0.382 ± 0.12. Turning to Q21Y, the abundance fitness was -0.63 ± 0.26. With Q21V, the abundance fitness was -0.2 ± 0.061.
